Reference: patent publication US20240336672A1 (INSTITUT PASTEUR, published 2024)

T1: CoV-229E Spike ectodomain (229E-CoV, UniProt P15423 16-1113)
T1 chain: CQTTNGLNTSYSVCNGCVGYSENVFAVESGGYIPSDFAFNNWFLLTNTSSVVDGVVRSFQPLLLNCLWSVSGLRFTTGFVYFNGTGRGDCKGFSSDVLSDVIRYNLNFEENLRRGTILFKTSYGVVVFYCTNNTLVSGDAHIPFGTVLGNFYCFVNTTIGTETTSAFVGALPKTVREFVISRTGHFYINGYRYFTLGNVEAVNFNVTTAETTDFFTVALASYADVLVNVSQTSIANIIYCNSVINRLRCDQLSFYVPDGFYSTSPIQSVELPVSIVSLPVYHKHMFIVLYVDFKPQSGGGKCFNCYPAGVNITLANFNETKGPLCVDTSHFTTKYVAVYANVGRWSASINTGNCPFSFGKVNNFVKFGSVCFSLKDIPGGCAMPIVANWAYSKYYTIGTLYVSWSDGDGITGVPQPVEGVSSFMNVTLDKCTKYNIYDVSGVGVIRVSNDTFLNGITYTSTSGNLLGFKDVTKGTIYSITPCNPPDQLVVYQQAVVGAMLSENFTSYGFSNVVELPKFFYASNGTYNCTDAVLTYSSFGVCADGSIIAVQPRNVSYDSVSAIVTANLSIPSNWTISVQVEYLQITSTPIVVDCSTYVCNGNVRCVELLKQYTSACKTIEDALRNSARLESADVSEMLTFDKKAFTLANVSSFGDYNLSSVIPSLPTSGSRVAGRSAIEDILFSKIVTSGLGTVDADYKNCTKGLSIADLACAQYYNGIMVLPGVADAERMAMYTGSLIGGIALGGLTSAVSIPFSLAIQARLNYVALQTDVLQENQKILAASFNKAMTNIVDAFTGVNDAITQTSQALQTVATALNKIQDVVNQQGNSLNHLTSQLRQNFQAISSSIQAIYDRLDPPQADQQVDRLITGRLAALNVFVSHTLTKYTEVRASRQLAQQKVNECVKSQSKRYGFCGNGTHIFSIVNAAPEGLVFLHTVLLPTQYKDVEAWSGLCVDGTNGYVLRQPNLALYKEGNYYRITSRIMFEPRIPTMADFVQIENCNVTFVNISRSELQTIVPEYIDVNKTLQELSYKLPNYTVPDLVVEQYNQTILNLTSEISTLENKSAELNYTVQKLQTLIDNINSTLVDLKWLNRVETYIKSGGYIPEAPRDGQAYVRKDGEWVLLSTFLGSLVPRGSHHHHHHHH

T2: CoV-OC43 Spike ectodomain (OC43-CoV, UniProt P36334 14-1263)
T2 chain: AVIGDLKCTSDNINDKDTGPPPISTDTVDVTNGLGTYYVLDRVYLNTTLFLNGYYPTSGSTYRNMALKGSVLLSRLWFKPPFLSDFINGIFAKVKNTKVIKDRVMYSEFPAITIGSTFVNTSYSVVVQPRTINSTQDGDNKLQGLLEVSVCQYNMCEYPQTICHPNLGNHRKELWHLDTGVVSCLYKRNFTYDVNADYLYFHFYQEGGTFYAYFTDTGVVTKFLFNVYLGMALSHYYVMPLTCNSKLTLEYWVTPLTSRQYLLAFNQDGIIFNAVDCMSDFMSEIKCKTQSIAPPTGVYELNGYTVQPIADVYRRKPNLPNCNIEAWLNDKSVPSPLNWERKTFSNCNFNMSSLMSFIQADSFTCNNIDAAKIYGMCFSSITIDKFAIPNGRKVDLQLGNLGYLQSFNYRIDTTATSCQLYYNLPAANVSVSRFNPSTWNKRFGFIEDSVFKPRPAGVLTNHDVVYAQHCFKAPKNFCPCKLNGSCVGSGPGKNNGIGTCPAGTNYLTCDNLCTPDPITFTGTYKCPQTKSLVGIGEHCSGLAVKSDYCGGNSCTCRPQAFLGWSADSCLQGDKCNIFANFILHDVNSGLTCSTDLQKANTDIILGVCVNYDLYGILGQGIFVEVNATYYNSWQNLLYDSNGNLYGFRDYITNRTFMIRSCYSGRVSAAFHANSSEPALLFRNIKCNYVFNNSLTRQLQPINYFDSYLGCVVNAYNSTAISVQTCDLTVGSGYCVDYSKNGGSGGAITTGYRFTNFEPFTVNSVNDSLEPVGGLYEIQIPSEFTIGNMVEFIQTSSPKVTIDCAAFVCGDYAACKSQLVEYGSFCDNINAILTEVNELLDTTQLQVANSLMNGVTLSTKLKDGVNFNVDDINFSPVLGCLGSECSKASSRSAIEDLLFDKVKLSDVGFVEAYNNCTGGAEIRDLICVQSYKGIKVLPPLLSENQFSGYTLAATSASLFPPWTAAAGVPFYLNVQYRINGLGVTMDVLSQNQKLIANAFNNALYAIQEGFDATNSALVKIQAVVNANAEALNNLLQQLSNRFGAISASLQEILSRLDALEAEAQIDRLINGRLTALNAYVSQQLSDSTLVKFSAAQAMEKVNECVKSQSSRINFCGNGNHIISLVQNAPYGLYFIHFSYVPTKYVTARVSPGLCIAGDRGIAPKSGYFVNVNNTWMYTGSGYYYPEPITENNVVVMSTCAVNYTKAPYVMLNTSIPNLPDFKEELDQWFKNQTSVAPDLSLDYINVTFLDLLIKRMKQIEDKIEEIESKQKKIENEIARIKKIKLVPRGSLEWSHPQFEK


Tests used:
[1] = target: T1, CoV-229E Spike ectodomain; assay: ELISA, coated spike ectodomain
[2] = target: T2, CoV-OC43 Spike ectodomain; assay: ELISA, coated antigen; also: test concentration or dose not given here

Row | Binder | binding result [1] | ELISA OD [2]
1 | Cv2.3194 (recombinant human IgG1) (antibody, V domains shown) VH: EVQLVESGGGLIQPGGSLRLSCAASGITVTSNYMSWVRQAPGKGLEWVSVIYPGGSTFYADSVKGRFTISRDNSKNTLYLQMNSLRAEDTAVYYCARDLVVYGMDVWGQGTTVTVSS VL: EIVLTQSPGTLSLSPGERATLSCRASQSVSSSYLAWYQQKPGQAPRLLIYGASSRATGIPGRFSGSGSGTDFTLTISRLEPEDFAIYYCQQGVTFGGGTKVEIKR | no binding | 0.8 OD
2 | Cv2.5213 (recombinant human IgG1) (antibody, V domains shown) VH: EVQLVESGGGLIQPGGSLRLSCAASGFTVSSNYMSWVRQAPGKGLEWVSLIYSGGSTYYADSVKGRFTISRDNSKNTLYLQMNSLRAEDTAVYYCARDLNYYGMDVWGQGATVTVSS VL: DIQMTQSPSSLSASVGDRVTITCRASQGISSYLAWYQQKPGKAPKLLIYAASTLQSGVPSRFSGSGSGTDFTLTISSLQPEDFATYYCQQLDSYSPFTFGPGTKVDIKR | no binding | 0.7 OD
3 | Cv2.3235 (recombinant human IgG1) (antibody, V domains shown) VH: EVQLVESGGGLIQPGGSLRLSCAASGFTVSRNYMSWVRQAPGKGLEWVSVIYSGGSTFYADSVKGRFTISRDNSKNTLYLQMNSLRAEDTAVYYCARDGDYYGMDVWGQGTTVTVSS VL: DIQMTQSPSFLSASVGDRVTITCRASQGISSFLAWYQQKPGKAPKLLIYGASTLQSGVTSRFSGSGSGTEFTLTISSLQPEDFATYYCQRLDSYPPITFGQGTRLEIKR | no binding | 0.3 OD
4 | Cv2.1353 (recombinant human IgG1) (antibody, V domains shown) VH: EVQLVESGGGLVQPGGSLRLSCAASGVTVSSNYMNWVRQAPGKGLEWVSVIYSGGSTFYADSVKGRFIISRDNSKNTLYLQMNSLKTEDTAVYYCARDLGPMGFDIWGQGTMVTVSS VL: DIQMTQSPSFLSASVGDRVTITCRASQGISSYLAWYQQKPGKAPKLLIYAASTLQSGVPSRFSGSGSGTEFTLTISSLQPEDFATYYCQQLNSDPPVTFGPGTKVDIKR | no binding | 0.8 OD
5 | Cv2.1169 (recombinant human IgG1) (antibody, also called Cv2.1169 IgG) heavy: QVQLVQSGPEVKKPGTSVKVSCKASGFTFTTSAVQWVRQARGQRLEWIGWIVVGSGNTNYAQKFQERVTITRDMSTTTAYMELSSLRSEDTAVYYCAAPYCSGGTCLDGFDIWGQGTMVTVSSASTKGPSVFPLAPSSKSTSGGTAALGCLVKDYFPEPVTVSWNSGALTSGVHTFPAVLQSSGLYSLSSVVTVPSSSLGTQTYICNVNHKPSNTKVDKKVEPKSCDKTHTCPPCPAPELLGGPSVFLFPPKPKDTLMISRTPEVTCVVVDVSHEDPEVKFNWYVDGVEVHNAKTKPREEQYNSTYRVVSVLTVLHQDWLNGKEYKCKVSNKALPAPIEKTISKAKQPREPQVYTLPPSRDELTKNQVSLTCLVKGFYPSDIAVEWESNGQPENNYKTTPPVLDSDGSFFLYSKLTVDKSRWQQGNVFSCSVMHEALHNHYTQKSLSLSPGK light: not shown | no binding | 0.1 OD
